These results are taken from publication PMC11878559.

For orientation: stoichiometry N means the number of molecules, sites or subunits per partner or assembly.

This experiment addresses StbD antitoxin of plasmid pHNSHP45 (p45), untagged (plasmid pHNSHP45 (p45), studied in E. coli). The experiment can be described thus: tricine-SDS-PAGE of the purified StbDE complex.

Consider “StbD antitoxin of plasmid pHNSHP45 (p45), untagged (natural protein)”, for which the stoichiometry N is 2.
